Results reported in patent US20220177587A1, “METHODS AND USES OF VARIANT CD80 FUSION PROTEINS AND RELATED CONSTRUCTS” (Alpine Immune Sciences, Inc., priority 2018, published 2022).

Assays:
[1] = target: T1, CD28 (Homo sapiens, UniProt P10747); experiment: Flow binding to Jurkat/IL2 reporter cells (CD28); parameters: host or cells: Jurkat cells expressing an IL-2-luciferase reporter
How it was run: (§1)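 Binding EC50 and PE mean fluorescence intensity derived by flow cytometry using PE-labelled anti-human Fc secondary. Target cells were CTLA4- or PD-L1-transfected CHO lines and CD28-expressing Jurkat/IL2 reporter cells, stained with fusion proteins on ice for 45 min following BSA blocking.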

[2] = target: T1, CD28; experiment: Jurkat/IL2 + CHO/OKT3 +/- PD-L1 reporter assay: PD-L1-dependent CD28 costimulation; format: cell-based; parameters: host or cells: Jurkat cells expressing an IL-2-luciferase reporter; conditions: Jurkat/IL2 + CHO/OKT3/PD-L1
How it was run: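 Readout is relative luminescence from lysed cocultures: test protein given 15 min at room temperature to Jurkat cells before adding CHO artificial APCs displaying OKT3 alone or OKT3 plus PD-L1, then 5 h at 37 °C, 5% CO2.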

[3] = target: huCTLA4 (Homo sapiens, UniProt P16410); experiment: Flow binding to CHO cells stably expressing CTLA4; parameters: huCTLA4 and huPD-L1, full-length mammalian surface expression constructs were generated; expressed in transfected cells; host or cells: CHO cells, lentiviral transduction, sorted to >98% purity; conditions: for CTLA4 MFI at 33.3 nM: CHO cells stably expressing CTLA4
How it was run: as §1

[4] = target: huPD-L1 (Homo sapiens, UniProt Q9NZQ7); experiment: Flow binding to CHO cells stably expressing PD-L1; parameters: huCTLA4 and huPD-L1, full-length mammalian surface expression constructs were generated; expressed in transfected cells; host or cells: CHO cells, lentiviral transduction, sorted to >98% purity; conditions: Table E23; for PD-L1 MFI at 33.3 nM: CD80 IgV-Fc (inert) at 33.3 nM, CHO cells stably expressing PD-L1
How it was run: as §1

[5] = Table E11, Jurkats (CD28), 33.3 nM
[6] = Table E23, CD80 IgV-Fc (inert) at 33.3 nM, Jurkat (CD28)
[7] = Table E23, CD80 IgV-Fc (inert) at 33.3 nM
[8] = Table E16, consensus variants, Jurkats (CD28), 33.3 nM
[9] = Table E16, consensus variants, 33.3 nM
[10] = Table E10, 33.3 nM, Jurkats (CD28)
[11] = Table E19, Jurkats (CD28), 33.3 nM
[12] = Table E23, MFI at 33.3 nM relative to CD80 WT IgV-Fc

huCTLA4, sequence (P16410 36-223): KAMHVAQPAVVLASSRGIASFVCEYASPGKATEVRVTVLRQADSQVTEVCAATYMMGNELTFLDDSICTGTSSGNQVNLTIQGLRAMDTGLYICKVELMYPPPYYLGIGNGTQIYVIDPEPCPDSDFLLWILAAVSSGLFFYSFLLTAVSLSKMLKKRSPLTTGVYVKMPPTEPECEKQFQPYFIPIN
huPD-L1, sequence (Q9NZQ7 19-290): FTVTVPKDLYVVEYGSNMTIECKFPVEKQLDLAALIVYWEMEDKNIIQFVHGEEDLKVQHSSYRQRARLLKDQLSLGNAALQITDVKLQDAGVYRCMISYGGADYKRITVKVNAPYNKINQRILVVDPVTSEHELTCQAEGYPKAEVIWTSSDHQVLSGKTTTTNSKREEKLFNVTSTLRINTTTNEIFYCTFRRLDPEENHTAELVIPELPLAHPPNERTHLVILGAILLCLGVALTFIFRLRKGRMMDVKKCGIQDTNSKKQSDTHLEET

B1: E35D/M47V/V68M/L85M (protein, UniProt P33681 35-288, looked up, variant E35D M47V V68M L85M)
T-lymphocyte activation …: VIHVTKEVKEVATLSCGHNVSVEELAQTRIYWQKDKKMVLTMMSGDVNIWPEYKNRTIFDITNNLSIMILALRPSDEGTYECVVMKYEKDAFKREHLAEVTLSVKADFPTPSISDFEIPTSNIRRIICSTSGGFPEPHLSWLENGEELNAINTTVSQDPETELYAVSSKLDFNMTTNHSFMCLIKYGHLRVNQTFNWNTTKQEHFPDNLLPSWAITLISVNGIFVICCLTYCFAPRCRERRRNERLRRESVRPV
CD28 MFI at 33.3 nM [1, 5]: 201 | Relative Luciferase Units (RLU), CD80 Cone 5.0 nM ([2]; Table E13): 1167 RLU | CTLA4 MFI at 33.3 nM ([3]; Table E11, 33.3 nM): 15997

B2: H18V/A26G/E35D/M47V/V68M/A71G/D90G (protein, UniProt P33681 35-288, looked up, variant H18V A26G E35D M47V V68M A71G D90G)
T-lymphocyte activation …: VIHVTKEVKEVATLSCGVNVSVEELGQTRIYWQKDKKMVLTMMSGDVNIWPEYKNRTIFDITNNLSIMILGLRPSDEGTYECVVLKYEKGAFKREHLAEVTLSVKADFPTPSISDFEIPTSNIRRIICSTSGGFPEPHLSWLENGEELNAINTTVSQDPETELYAVSSKLDFNMTTNHSFMCLIKYGHLRVNQTFNWNTTKQEHFPDNLLPSWAITLISVNGIFVICCLTYCFAPRCRERRRNERLRRESVRPV
CD28 MFI at 33.3 nM [1, 6]: 8189 | CTLA4 MFI at 33.3 nM [3, 7]: 25398 | PD-L1 MFI at 33.3 nM [4]: 66198

B3: R29C/E35D/M47L/V68M/A71G/L85M (protein, UniProt P33681 35-288, looked up, variant R29C E35D M47L V68M A71G L85M)
T-lymphocyte activation …: VIHVTKEVKEVATLSCGHNVSVEELAQTCIYWQKDKKMVLTMMSGDLNIWPEYKNRTIFDITNNLSIMILGLRPSDEGTYECVVMKYEKDAFKREHLAEVTLSVKADFPTPSISDFEIPTSNIRRIICSTSGGFPEPHLSWLENGEELNAINTTVSQDPETELYAVSSKLDFNMTTNHSFMCLIKYGHLRVNQTFNWNTTKQEHFPDNLLPSWAITLISVNGIFVICCLTYCFAPRCRERRRNERLRRESVRPV
modifications: Fc fusion
CD28 MFI at 33.3 nM [1, 5]: 16 | Relative Luciferase Units (RLU), CD80 Cone 5.0 nM ([2]; Table E13): 155 RLU | CTLA4 MFI at 33.3 nM ([3]; Table E11, 33.3 nM): 91

B4: H18Y/E35D/M47V/V68M/L85M (protein, UniProt P33681 35-288, looked up, variant H18Y E35D M47V V68M L85M)
T-lymphocyte activation …: VIHVTKEVKEVATLSCGYNVSVEELAQTRIYWQKDKKMVLTMMSGDVNIWPEYKNRTIFDITNNLSIMILALRPSDEGTYECVVMKYEKDAFKREHLAEVTLSVKADFPTPSISDFEIPTSNIRRIICSTSGGFPEPHLSWLENGEELNAINTTVSQDPETELYAVSSKLDFNMTTNHSFMCLIKYGHLRVNQTFNWNTTKQEHFPDNLLPSWAITLISVNGIFVICCLTYCFAPRCRERRRNERLRRESVRPV
CD28 MFI at 33.3 nM [1, 5]: 373 | CD28 MFI at 33.3 nM [1, 8]: 1387 | Relative Luciferase Units (RLU), CD80 Cone 5.0 nM ([2]; Table E13): 1013 RLU | Relative Luciferase Units (RLU), CD80 Cone 5.0 nM ([2]; Table E17, consensus variants): 2575 RLU | CTLA4 MFI at 33.3 nM ([3]; Table E11, 33.3 nM): 18367 | CTLA4 MFI at 33.3 nM [3, 9]: 19306

B5: H18Y/E35D/M47L/V68M/E95V/L97Q (protein, UniProt P33681 35-288, looked up, variant H18Y E35D M47L V68M E95V L97Q)
T-lymphocyte activation …: VIHVTKEVKEVATLSCGYNVSVEELAQTRIYWQKDKKMVLTMMSGDLNIWPEYKNRTIFDITNNLSIMILALRPSDEGTYECVVLKYEKDAFKRVHQAEVTLSVKADFPTPSISDFEIPTSNIRRIICSTSGGFPEPHLSWLENGEELNAINTTVSQDPETELYAVSSKLDFNMTTNHSFMCLIKYGHLRVNQTFNWNTTKQEHFPDNLLPSWAITLISVNGIFVICCLTYCFAPRCRERRRNERLRRESVRPV
CD28 MFI at 33.3 nM [1, 5]: 14.5 | CD28 MFI at 33.3 nM [1, 8]: 2602 | Relative Luciferase Units (RLU), CD80 Cone 5.0 nM ([2]; Table E13): 225 RLU | CTLA4 MFI at 33.3 nM ([3]; Table E11, 33.3 nM): 20475 | CTLA4 MFI at 33.3 nM [3, 9]: 18022

B6: E35D/M47V/T62S/L85Q (protein)
chain: VIHVTKEVKEVATLSCGHNVSVEELAQTRIYWQKDKKMVLTMMSGDVNIWPEYKNRTIFDISNNLSIVILALRPSDEGTYECVVQKYEKDAFKREHLAEVTLSVKAD
CD28 MFI at 33.3 nM [1, 10]: 99.4 | Relative Luciferase Units (RLU), CD80 Cone 5.0 nM ([2]; Table E12): 1402 RLU | CTLA4 MFI at 33.3 nM ([3]; Table E10, 33.3 nM): 31230

B7: E35D/N48K/V68M (protein)
chain: VIHVTKEVKEVATLSCGHNVSVEELAQTRIYWQKDKKMVLTMMSGDMKIWPEYKNRTIFDITNNLSIMILALRPSDEGTYECVVLKYEKDAFKREHLAEVTLSVKAD
CD28 MFI at 33.3 nM [1, 11]: 642 | Relative Luciferase Units (RLU), CD80 Conc 5.0 nM ([2]; Table E21): 721 RLU | CTLA4 MFI at 33.3 nM ([3]; Table E19, 33.3 nM): 33583

B8: E35D/M47V/L85M/R94Q (protein)
chain: VIHVTKEVKEVATLSCGHNVSVEELAQTRIYWQKDKKMVLTMMSGDVNIWPEYKNRTIFDITNNLSIVILALRPSDEGTYECVVMKYEKDAFKQEHLAEVTLSVKAD
CD28 MFI at 33.3 nM [1, 10]: 23.7 | Relative Luciferase Units (RLU), CD80 Cone 5.0 nM ([2]; Table E12): 466 RLU | CTLA4 MFI at 33.3 nM ([3]; Table E10, 33.3 nM): 23334

B9: H18Y/A26E/A71G/D90G (protein)
chain: VIHVTKEVKEVATLSCGYNVSVEELEQTRIYWQKEKKMVLTMMSGDMNIWPEYKNRTIFDITNNLSIVILGLRPSDEGTYECVVLKYEKGAFKREHLAEVTLSVKAD
CD28 MFI at 33.3 nM ([1]; Table E20, Jurkats (CD28), 33.3 nM): 2001 | Relative Luciferase Units (RLU), CD80 Conc 5.0 nM ([2]; Table E22): 933 RLU | CTLA4 MFI at 33.3 nM ([3]; Table E20, 33.3 nM): 19878

B10: E35D/M47V/K89N (protein)
chain: VIHVTKEVKEVATLSCGHNVSVEELAQTRIYWQKDKKMVLTMMSGDVNIWPEYKNRTIFDITNNLSIVILALRPSDEGTYECVVLKYENDAFKREHLAEVTLSVKAD
CD28 MFI at 33.3 nM [1, 11]: 507 | Relative Luciferase Units (RLU), CD80 Conc 5.0 nM ([2]; Table E21): 668 RLU | CTLA4 MFI at 33.3 nM ([3]; Table E19, 33.3 nM): 39282

B11: H18Y/A26P/E35D/M471/V68M/A71G (protein)
chain: VIHVTKEVKEVATLSCGYNVSVEELPQTRIYWQKDKKMVLTMMSGDINIWPEYKNRTIFDITNNLSIMILGLRPSDEGTYECVVLKYEKDAFKREHLAEVTLSVKAD
CD28 MFI at 33.3 nM [1, 6]: 5125 | CD28 Fold change to WT CD80 [1, 12]: 50.2 | CTLA4 MFI at 33.3 nM [3, 7]: 12156 | CTLA4 Fold change to WT CD80 [3, 12]: 8.8 | PD-L1 MFI at 33.3 nM [4]: 54482 | PD-L1 Fold change to WT CD80 ([4]; MFI at 33.3 nM relative to CD80 WT IgV-Fc): 330.2 | Ratio of PDL1:CD28 ([4]; ratio of MFI at 33.3 nM): 10.6

B12: E35D/M47V/I61V/L85M (protein)
chain: VIHVTKEVKEVATLSCGHNVSVEELAQTRIYWQKDKKMVLTMMSGDVNIWPEYKNRTIFDVTNNLSIVILALRPSDEGTYECVVMKYEKDAFKREHLAEVTLSVKAD
CD28 MFI at 33.3 nM [1, 10]: 274 | Relative Luciferase Units (RLU), CD80 Cone 5.0 nM ([2]; Table E12): 1176 RLU | CTLA4 MFI at 33.3 nM ([3]; Table E10, 33.3 nM): 28848

B13: M47V/V68M/K89N (protein)
chain: VIHVTKEVKEVATLSCGHNVSVEELAQTRIYWQKEKKMVLTMMSGDVNIWPEYKNRTIFDITNNLSIMILALRPSDEGTYECVVLKYENDAFKREHLAEVTLSVKAD
CD28 MFI at 33.3 nM [1, 11]: 1324 | Relative Luciferase Units (RLU), CD80 Conc 5.0 nM ([2]; Table E21): 862 RLU | CTLA4 MFI at 33.3 nM ([3]; Table E19, 33.3 nM): 24787

B14: V22D/E24D/E35D/M47V/V68M (protein)
chain: VIHVTKEVKEVATLSCGHNVSDEDLAQTRIYWQKDKKMVLTMMSGDVNIWPEYKNRTIFDITNNLSIMILALRPSDEGTYECVVLKYEKDAFKREHLAEVTLSVKADFPTPSISDFETPTSNIRRIICSTSGGFPEPHLSWLENGEELNAINTTVSQDPETELYAVSSKLDFNMTTNHSFMCLIKYGHLRVNQTFNWNTTKQEHFPDN
modifications: CD80 v385 ECD
CD28 MFI at 33.3 nM [1, 5]: 191 | Relative Luciferase Units (RLU), CD80 Cone 5.0 nM ([2]; Table E13): 1023 RLU | CTLA4 MFI at 33.3 nM ([3]; Table E11, 33.3 nM): 16899
